Laboratory results: patent US12576154B2, “Conjugates of PSMA-binding moieties with cytotoxic agents” (PHILOCHEM AG, priority 2022, dated 2026)

Legend:
[1] = tested on: HT1080.hPSMA xenografts; assay: Payload study and combination therapy with L19-IL2 in HT1080.hPSMA tumor model (tumor volume); format: in vivo, mice; settings: conjugates 250 nmol/kg i.v. days 7 and 11; L19-IL2 2.5 mg/kg i.v. days 8, 10, 12; n=3/4
Description: HT1080.hPSMA tumor cells were grown to 90% confluence and detached with Trypsin-EDTA 0.05%. Cells were resuspended in Hank's Balanced Salt Solution (HBSS) at a 5×10^7 cells/mL density. 100 μL of HT1080.hPSMA cells (5×10^6 cells) were injected subcutaneously in the right flank of female athymic Balb/c AnNRj-Foxn1 mice (6 to 8 weeks of age). Tumors were grown until an average volumes of ˜100 mm^3 was reached.
Tumor-bearing mice were randomized into groups of 3 or 4 animals. A 50 μM solution (2% DMSO, 250 nmol/kg; 100 μL) of Conjugate 1, 5, or 6, L19-IL2 (SEQ ID NO: 10, 0.5 mg/mL, 2.5 mg/kg; 100 μL), PBS (100 μL), or L19-IL2 buffer (NaH2PO4 6.7 mM, NaCl 20 mM, KCl 1.8 mM, Mannitol 133 mM, Tween80 0.1% v/v, Glycerol 1% w/v; 100 μL) was injected intravenously (i.e., systemic administration through tail-vein) with the following schedule:
Groups of Conjugates 1, 5, or 6: two separate injections with a 3-day break in between (day 7 and day 11 after tumor implantation).
L19-IL2 group: three separate injections with a 1-day break in between (day 8, day 10, and day 12 after tumor implantation).
Combination therapy groups: two separate injections of Conjugate 1, 5, or 6 with a 3-day break in between (day 7 and day 11 after tumor implantation) and three separate injections of L19-IL2 with a 1-day break in between (day 8, day 10, and day 12 after tumor implantation). […]

[2] = tested on: HT1080.hPSMA xenografts; assay: Comparative therapy experiment in mice bearing HT1080.hPSMA xenografts (tumor volume); format: in vivo; settings: 250 nmol/kg i.v. on days 8, 10, 12 after tumor implantation, n=5
Description: HT1080.hPSMA tumor cells were grown to 90% confluence and detached with Trypsin-EDTA 0.05%. Cells were resuspended in Hank's Balanced Salt Solution (HBSS) at a 5×10^7 cells/mL density. 100 μL of HT1080.hPSMA cells (5×10^6 cells) were injected subcutaneously in the right flank of female athymic Balb/c AnNRj-Foxn1 mice (6 to 8 weeks of age). Tumors were grown until volumes of […].
Tumor-bearing mice were randomized into groups of 5 and 0.1 mL of 50 μM solutions (2% DMSO, PBS, 250 nmol/kg) of the four conjugates (1 to 4), or saline solution (0.9% NaCl) was injected intravenously three times with 1-day break in between (days 8, 10, and 12 after tumor implantation).

[3] = tested on: HT1080.hPSMA tumor; assay: MMAE release from conjugates in HT1080.hPSMA tumor model (comparison and timepoint study); format: in vivo, mice; settings: 250 nmol/kg; for MMAE release compared with Conjugate 1: 24 h after intravenous injection, HT1080.hPSMA tumor model
Description: HT1080.hPSMA tumor cells were grown to 90% confluence and detached with Trypsin-EDTA 0.05%. Cells were resuspended in Hank's Balanced Salt Solution (HBSS) at a density of 5×10^7 cells/mL. 100 μL of HT1080.hPSMA cells (5×10^6 cells) were injected subcutaneously in the right flank of female athymic Balb/c AnNRj-Foxn1 mice (6 to 8 weeks of age). Tumors were grown until ˜250 mm^3 volume (average).
Comparison study: 0.1 mL of 50 μM solutions (2% DMSO, PBS, 250 nmol/kg) of the four conjugates (1 to 4) were injected intravenously. The animals were sacrificed in groups of 3 after 24 h, and blood and the following organs were extracted: HT1080.hPSMA tumor, heart, lungs, liver, kidney, spleen, stomach. The blood fraction was centrifuged, and the plasma (supernatant) was extracted. The organs were stored at −80° C. before being used for further analysis.
Timepoint study: 0.1 mL of a 50 μM solution (2% DMSO, PBS, 250 nmol/kg) of conjugate 1 was injected intravenously into the tail vein of the mice. The animals were sacrificed in groups of 3 after 6 h, 24 h, 48 h, and 72 h, and blood and the following organs were extracted: HT1080.hPSMA tumor, heart, lungs, liver, kidney, spleen, stomach. The blood fraction was centrifuged, and the plasma (supernatant) was extracted. The organs were stored at −80° C. before being used for further analysis.
Frozen plasma (50 μL) and mouse tissues (˜50 mg) were thawed, and 500 μL of PBS was added. Samples were kept on ice, and 50 μL solution of internal standard (d8-MMAE, 50 nM) was added. Samples were then homogenized at 4° C. with a tissue lyser for 2 minutes at 30 Hz for 4 cycles. After homogenization, samples were centrifuged (21'000 g, 10 min). Subsequently, 100 μL of supernatants were collected and added to 900 μL of acetonitrile (ACN) to induce protein precipitation. After centrifugation (21'000 g, 10 min), 800 μL of supernatants were collected and dried at room temperature with a vacuum centrifuge. Pellets were then resuspended in 20 μL of an aqueous solution containing 3% ACN and 0.1% of HCOOH, and 5 μL were injected into the UHPLC-MS system. Chromatographic separation was carried out on a Hypersil Gold C18 column (100 mm×2.1 mm, 1.9 μm particle size, 175 Å pore size) column temperature was set at 50° C. and a flow rate of 700 μL/min with a gradient program from 95% A (water+0.1% HCOOH), 5% B (ACN+0.1% HCOOH) to 35% of A in 2.5 minutes, from 35% A to 5% A in 0.4 minutes and 5% A was kept for 1.3 minutes before reconditioning at 95% A. The LC system was coupled to a Q-Exactive mass spectrometer via an Ion Max HESI Source. Ionization was carried out with a spray voltage of 3.5 kV; Sheath gas 40 units; Aux gas 10 units; capillary temperature of 380° C.; Aux gas temperature 450° C.; S-lens RF level 60. The mass spectrometer was operating in targeted Single Ion Monitoring mode (t-SIM) following the molecular ion 718.5113 m/z. The detector was working in positive ionization mode with the following parameters: resolution 70'000 (FWHM at 200 m/z); AGC target of 5×10^4; maximum injection time of 200 ms; isolation window 14 m/z; isolation offset 5 m/z. Peak areas of analytes and internal standards were integrated, and corresponding ratios were calculated. The ratios were then transformed into pmol/g of wet tissue using single-concentration external calibration points and corrected by the total weight of the sample analysed. The percentage of injected dose per gram (% ID/g) was finally calculated by normalizing the value based on the total dose injected into the mouse. Data analysis was performed with Skyline v22.2.0.351.

[4] = tested on: LNCaP tumor (PSMA+); assay: MMAE release from conjugates in LNCaP tumor model (biodistribution by LC-MS); format: in vivo, mice; settings: 24 h after intravenous injection, LNCaP tumor model, n=3
Description: LNCaP tumor cells were grown to 80% confluence and detached with Trypsin-EDTA 0.05%. Cells were resuspended in PBS at a density of 30×10^6 cells/mL. The cell suspension was further diluted 1:1 with Matrigel. 200 μL of LNCaP cells (3×10^6 cells) were injected subcutaneously in the left flank of female athymic Balb/c AnNRj-Foxn1 mice (6 to 8 weeks of age). Tumors were grown until volumes of 200-300 mm^3 were observed.
0.1 ml of 50 μM solutions (2% DMSO, PBS) of the four Conjugates (1-4) were injected intravenously into 4 of the mice (1 mouse per SMDC). The animals were sacrificed after 24 h and the following organs were extracted: blood, LNCaP tumor (PSMA+), heart, lungs, liver, kidney, spleen, stomach. The blood fraction was centrifuged, and the plasma (supernatant) was extracted. The organs were preserved at −80° C. before being used for further analysis.
Frozen plasma or mouse tissues (˜50 mg) were thawed and treated with 600 μL of an aqueous solution containing 95% acetonitrile (ACN), and 0.1% HCOOH were added to induce protein precipitation. 50 μL of a solution of d8-MMAE, 50 nM) was added as internal standard. Samples were then homogenized with a tissue lyser for 15 minutes at 30 Hz. After homogenization, samples were centrifuged (21'000 g for 10 minutes). The supernatant was collected and dried at room temperature with a rotary evaporator. Pellets were then resuspended in 1 mL of an aqueous solution containing 3% ACN and 0.1% of TFA and subsequently purified on Oasis HLB SPE columns. Eluates were dried under vacuum at room temperature. […] Peak areas of analytes and internal standards were integrated, and corresponding ratios were calculated. The ratios were then transformed into pmol/g of wet tissue using single-concentration external calibration points and corrected by the total weight of the sample analysed. The percentage of injected dose per gram (% ID/g) was finally calculated by normalizing the value based on the total dose injected into the mouse. […]

| Compound | In vivo anti-tumor activity, monotherapy (tumor volume) [1] | Therapeutic efficacy (tumor volume change) [2] | MMAE release compared with Conjugate 1 [3] | MMAE release, experiment repeated with three mice each [4] | MMAE release in tumor ([3]; 24 hours after intravenous injection, HT1080.hPSMA tumor, n=3) [% ID/g] |
| --- | --- | --- | --- | --- | --- |
| L19-IL2: Immunocytokine: L19-derived scFv (binds ED-B domain of fibronectin) linked to IL2, SEQ ID NO: 10 [Conjugate L19-IL2] | only a slight tumor growth retardation | – | – | – | – |
| CC[C@H](C)[C@@H]([C@@H](CC(=O)N1CCC[C@H]1[C@H](OC)[C@@H](C)C(=O)N[C@H](C)[C@@H](O)c1ccccc1)OC)N(C)C(=O)[C@@H](NC(=O)[C@H](C(C)C)N(C)C(=O)CCCCCN1C(=O)CC(SC[C@H](N)C(=O)NCCCCCC(=O)NC[C@H]2CC[C@H](C(=O)N[C@@H](Cc3ccc4ccccc4c3)C(=O)NCCCC[C@H](NC(=O)N[C@@H](CCC(=O)O)C(=O)O)C(=O)O)CC2)C1=O)C(C)C (stereo partly drawn) [Conjugate 4] | – | didn't display any therapeutic efficacy | significantly lower or no release of MMAE | – | – |
| CC[C@H](C)[C@@H]([C@@H](CC(=O)N1CCC[C@H]1[C@H](OC)[C@@H](C)C(=O)N[C@H](C)[C@@H](O)c1ccccc1)OC)N(C)C(=O)[C@@H](NC(=O)[C@H](C(C)C)N(C)C(=O)OCc1ccc(NC(=O)[C@H](CCCNC(N)=O)NC(=O)[C@@H](NC(=O)CCCCCN2C(=O)CC(SC[C@H](N)C(=O)NCCCCCC(=O)NC[C@H]3CC[C@H](C(=O)N[C@@H](Cc4ccc5ccccc5c4)C(=O)NCCCC[C@H](NC(=O)N[C@@H](CCC(=O)O)C(=O)O)C(=O)O)CC3)C2=O)C(C)C)cc1)C(C)C (stereo partly drawn) [Conjugate 2] | – | tumor growth retardation but did not lead to shrinkage of the tumor mass | significantly lower or no release of MMAE | confirmed | 1.7 |
| CC[C@H](C)[C@@H]([C@@H](CC(=O)N1CCC[C@H]1[C@H](OC)[C@@H](C)C(=O)N[C@H](C)[C@@H](O)c1ccccc1)OC)N(C)C(=O)[C@@H](NC(=O)[C@H](C(C)C)N(C)C(=O)OCCSSC[C@H](N)C(=O)NCCCCCC(=O)NC[C@H]1CC[C@H](C(=O)N[C@@H](Cc2ccc3ccccc3c2)C(=O)NCCCC[C@H](NC(=O)N[C@@H](CCC(=O)O)C(=O)O)C(=O)O)CC1)C(C)C [Conjugate 3] | – | didn't display any therapeutic efficacy | significantly lower or no release of MMAE | – | – |
